Assay results taken from patent publication US20240075137A1 (COMPUGEN, published 2024).
Where a chain is given by its changes, count along the chain named. In names and notes the source's numbering stands.

T1: Mouse TIGIT-His (mouse, UniProt P86176)
T1 construct: also called mouse TIGIT monomer (prepared in-house)
T1 sequence (soluble monomer with His tag, looked up): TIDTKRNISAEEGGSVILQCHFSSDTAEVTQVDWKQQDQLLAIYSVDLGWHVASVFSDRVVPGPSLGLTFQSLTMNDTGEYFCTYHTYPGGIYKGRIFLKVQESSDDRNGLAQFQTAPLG

T2: human TIGIT ECD with C-terminal polyhistidine tag (human, UniProt Q495A1 22-141)
T2 construct: in-house or Sino Biological; also called hTIGIT-HIS; human TIGIT-HIS
T2 sequence: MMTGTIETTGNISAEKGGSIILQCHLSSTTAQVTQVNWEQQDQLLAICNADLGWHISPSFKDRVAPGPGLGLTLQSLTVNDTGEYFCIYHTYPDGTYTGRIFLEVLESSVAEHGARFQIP

T3: human PVR-h1Fc (Sino Biological #10109-H20H) (human, UniProt P15151 21-343)
T3 construct: bought; also called hPVR-hFc; Sino PVR-Fc
T3 sequence (looked up): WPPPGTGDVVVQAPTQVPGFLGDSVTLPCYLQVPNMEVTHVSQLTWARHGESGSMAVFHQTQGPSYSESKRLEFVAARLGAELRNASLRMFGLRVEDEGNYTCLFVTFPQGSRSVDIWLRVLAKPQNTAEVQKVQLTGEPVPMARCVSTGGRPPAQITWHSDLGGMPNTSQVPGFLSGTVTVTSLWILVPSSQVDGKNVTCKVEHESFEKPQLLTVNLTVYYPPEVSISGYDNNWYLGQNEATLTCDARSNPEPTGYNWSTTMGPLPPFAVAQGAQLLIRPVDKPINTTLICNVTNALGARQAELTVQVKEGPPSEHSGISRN

T4: mouse TIGIT on cells (mouse, UniProt P86176 29-249)
T4 construct: whole, on cells; also called mouse TIGIT over-expressing HEK cells; mouse Tregs
T4 sequence (looked up): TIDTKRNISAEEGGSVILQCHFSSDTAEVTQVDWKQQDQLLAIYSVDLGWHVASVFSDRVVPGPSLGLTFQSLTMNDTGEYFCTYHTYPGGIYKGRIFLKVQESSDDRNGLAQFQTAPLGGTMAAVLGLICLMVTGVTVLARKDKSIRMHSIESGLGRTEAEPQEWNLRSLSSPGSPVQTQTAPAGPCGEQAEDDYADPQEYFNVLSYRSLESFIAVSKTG

B1: CPA.9.049 hIgG4 (antibody, V domains shown)
VH: EVQLVETGGGLIQPGRSLRLSCAASGFTFSSYAMHWVRQAPGKGLEWVAVISYDGSNKYYADSVKGRFTISRDNSKNTLYLQMNSLRAEDTAVYYCARDPLPLHYYGMDVWGQGTTVTVSS
VL: QSALTQPRSASGNPGQRVTISCSGSSSNMGRRPVNWYQQIPGTAPKLLIYSQNQRPSGVPDRFSGSQSGTSASLTISGLQSEDEAEYFCAVWDDSLFSLLLGGGTQLAVLG
notes: phage-derived anti-TIGIT, human IgG4; also called CPA.9.049-H4
B2: CPA.9.086.H4(S241P) (antibody, human IgG4 S228P, lambda, V domains shown)
VH: B1 VH with D54A, S56E, N57V
VL: B1 VL with S95I, L96G, F97R, S98V, L100Q
B3: CPA.9.059 hIgG4 (antibody, V domains shown)
VH: EVQLVETGGGLIQPGGSLRLSCAASGFTVSSNYMSWVRQAPGKGLEWVSVIYSGGSTYYADSVKGRFTISRDNSKNTLYLQMNSLRAEDTAVYYCARGARYSYGQYPYWGQGTLVTVSS
VL: DIQLTQSPSFLSASVGDRVTITCRASHDISSLFSWYQQKPGKAPKLLIYAASTLQTGVPSRFSGSASGTEFTLTISSLQPEDFATYYCLQLDSFPTWTFGQGTKVEIKR
notes: phage-derived anti-TIGIT, human IgG4; also called CPA.9.059-H4
B4: CHA.9.543 (antibody, V domains shown)
VH: EVQLQQSGPELVKPGASMKISCKASGYSFTGYTMNWVRQSHGKNLEWLGLIFPYNGGTSYNQNFKGKATLTVDTSSSTAYMELLSLTSVDSAVYYCARGVRFALDYWGQGTSVSVSS
VL: DVVMTQTPLSLPVSFGDQVSISCRSSQSLANSYGNTYLSWYLHKPGQSPQLLIYEISNRFSGVPDRFSGSGSGTDFTLNISTIKPEDLGMYYCLQGTHQPWTFGGGTKLEIKR
B5: human TIGIT on cells (receptor)
chain: T2 sequence
notes: also called Expi293 human TIGIT over-expressing cells
B6: CPA.9.083 reformatted as mouse IgG1 (antibody, V domains shown)
VH: B1 VH with S56T, N57P, K58V
VL: B1 VL with D94G, S95D, L96R, F97R, L100Q
notes: also called CPA.9.083 mIgG1
B7: CPA.9.086 reformatted as mouse IgG1 (antibody, V domains shown)
VH: B1 VH with D54A, S56E, N57V
VL: B1 VL with S95I, L96G, F97R, S98V, L100Q
notes: also called CPA.9.086 mIgG1

Key:
[1] = target: T1, Mouse TIGIT-His; assay: SPR (ProteOn), mAb captured, mouse TIGIT monomer injected
Protocol: (§1) All experiments were performed using a ProteOn XPR 36 instrument at 22° C. First, high density capture surfaces were prepared with goat anti human Fc polyclonal antibody (Thermo #H10500) and rabbit anti mouse antibodies (GE Healthcare #BR100838), respectively, immobilized over all vertical capture lanes and horizontal interspots on separate GLC chips using standard amine coupling. Typical immobilization levels for the anti-human capture pAb and the anti-mouse capture antibody for each GLC chip were around 5000 RU. Human TIGIT was obtained from Sino Biologicals while mouse TIGIT monomer and cyno TIGIT monomer were prepared in-house.
(§2) Each mAb was diluted to ˜0.5 μg/mL in running buffer which was 1×PBST with filtered BSA added to a final concentration of 100 μg/mL. For each “single-shot kinetics” cycle on the ProteOn instrument, a different mAb was captured over one of the six unique vertical capture lanes for approximately 1.5-2.5 minutes. After switching the buffer flow of the ProteOn to the horizontal direction, capture surfaces were stabilized for approximately 15-20 minutes. […] An identical buffer injection preceded each series of injected antigen for double-referencing. […] The sensorgrams of TIGIT antigen injected over captured mAbs were processed using a ProteOn version of Scrubber and were fit to a 1:1 kinetic binding model including a term for mass transport.

[2] = target: T5, cyno TIGIT on cells (cynomolgus macaque); assay: FACS KD on Expi293 cyno TIGIT over-expressing cells; ± 95% CI of the fit
T5 construct: whole, on cells; also called Expi293 cyno TIGIT over-expressing cells

[3] = target: T2, human TIGIT ECD with C-terminal …; assay: SPR (ProteOn), mAb captured, human TIGIT injected
Protocol: as §1, §2

[4] = target: B5; assay: FACS blocking: Expi293 human TIGIT cells pre-incubated with mAb, then human PVR-m2aFc; lower gMFI = more blocking
[5] = target: B5; assay: FACS KD on Expi293 human TIGIT over-expressing cells; ± 95% CI of the fit
[6] = target: B5; assay: FACS blocking of human PVR-m2aFc binding to human TIGIT OE Expi293 cells; binding site concentration; n=2
[7] = target: T2, human TIGIT ECD with C-terminal …; assay: KinExA equilibrium, His-tagged human TIGIT, n = 1
Protocol: (§3) KinExA equilibrium experiments were performed using a KinExA 3200 instrument (Sapidyne Instruments, Boise, ID, USA) at 22° C. Recombinant His-tagged human TIGIT was obtained from Sino Biologicals (Beijing, China) and reconstituted into 1×PBS. All antigen and antibody samples for KinExA analyses were prepared in degassed PBST buffer (PBS with 0.05% tween 20) with 100 ug/mL filtered BSA and 0.02% sodium azide. […] For each KinExA experiment, ˜20 lag of human TIGIT was diluted into 1 mL of 50 mM sodium carbonate, pH 9.2 which was added directly to 50 mg of azlactone beads (Ultralink Support, Thermo Scientific, Rockford, IL, USA) and rocked overnight at 4° C. After rocking, the beads were rinsed once with 1 M Tris buffer, pH 8.5, containing 10 mg/mL BSA and rocked for one hour at room temperature in the same buffer. Coupled beads were added to the bead reservoir in the KinExA instrument and diluted to ˜30 mL with 1×HBS-N (0.01 M Hepes, 0.15M NaCl, GE Healthcare) containing 0.02% sodium azide which was also the running buffer for the KinExA instrument. All antigen-coupled beads were used immediately after preparation.
(§4) The volume flowed through the bead pack for each equilibrated sample for all experiments ranged from 4 mL to 11 mL at a flow rate of 0.25 mL/min.

[8] = target: B5; assay: FACS titration of AF647-labelled mAb on human effector memory CD8+ T cells, Donor 321
[9] = target: B5; assay: FACS titration on human TIGIT OE Expi293 cells, binding site concentration; ± 95% CI; 'Fit: Good/Excellent'
Protocol: AF647-labeled goat anti-human F(ab′) (Jackson Immunoresearch) was added to the cells to detect binding of anti-TIGIT antibodies.

[10] = target: T5, cyno TIGIT on cells; assay: FACS titration of AF647-labelled mAb on cyno effector memory CD8+ T cells, Cyno Donor 1; isotype gMFI subtracted
[11] = target: T6, Cyno TIGIT-His; assay: SPR (ProteOn), Cyno TIGIT-His
T6 construct: also called cyno TIGIT monomer (prepared in-house); C-terminal HIS-tagged cyno TIGIT ECD recombinant protein
T6 sequence (ECD with C-terminal His tag, as listed by the source): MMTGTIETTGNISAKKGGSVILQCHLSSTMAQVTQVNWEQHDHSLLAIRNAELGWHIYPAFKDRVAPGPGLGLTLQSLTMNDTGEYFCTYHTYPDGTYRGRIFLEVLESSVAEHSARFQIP

[12] = target: T2, human TIGIT ECD with C-terminal …; assay: KinExA equilibrium, His-tagged human TIGIT, n = 2
Protocol: as §3, §4

[13] = target: T5, cyno TIGIT on cells; assay: FACS titration on cyno TIGIT OE Expi293 cells, binding site concentration; ± 95% CI; 'Fit: Good'
Protocol: AF647-labeled goat anti-human F(ab′) (Jackson Immunoresearch) was added to the cells to detect binding of anti-TIGIT antibodies. The gMFI of the anti-TIGIT antibodies bound to the cyno TIGIT over-expressing Expi293 cells (black line), and the parental Expi293 cells (grey line) are shown.

[14] = target: B5; assay: FACS blocking of human PVR-m2aFc binding to human TIGIT OE Expi293 cells; binding site concentration; n=1
[15] = target: B5; assay: FACS titration of AF647-labelled mAb on human effector memory CD8+ T cells, Donor 322
[16] = target: T1, Mouse TIGIT-His; assay: SPR (ProteOn), Mouse TIGIT-His
[17] = target: T2, human TIGIT ECD with C-terminal …; assay: SPR (ProteOn), Human TIGIT-His
[18] = target: T5, cyno TIGIT on cells; assay: FACS titration of AF647-labelled mAb on cyno effector memory CD8+ T cells, Cyno Donor 3; isotype gMFI subtracted
[19] = target: B5; assay: FACS titration of AF647-labelled mAb on human effector memory CD8+ T cells, Donor 334
[20] = target: T6, Cyno TIGIT-His; assay: SPR (ProteOn), mAb captured, cyno TIGIT monomer injected
Protocol: as §1, §2

[21] = target: T6, Cyno TIGIT-His; assay: SPR (ProteOn), mAb captured, cyno TIGIT monomer injected; kd of this row held constant
Protocol: as §1, §2

[22] = target: T3, human PVR-h1Fc (Sino Biological …); assay: FACS titration on Expi293 human TIGIT over-expressing cells (gMFI OE:Parental); ± 95% CI; 'Fit: Fair'
Protocol: The 12th well of each titration contained buffer only to serve as background. Each cell type was incubated with mAb for 60 minutes at 4° C. while. […] A FACS Canto II HTS instrument then recorded the Geometric Mean Fluorescence Intensity (gMFI) of 5000-10,000 events for each well.

[23] = target: T4, mouse TIGIT on cells; assay: FACS titration of AF647-labelled mAb on mouse CD4+CD25+Foxp3+ Tregs from Renca tumors; no unit beside the value, nM taken from the axis (binding site)
Description: Anti-TIGIT antibodies were directly conjugated to AF647 for mouse Treg binding.

In the case of B1, the Kd [1] is reported as 82.7 nM, the Kd [2] is reported as 1.88 nM and the Kd [3] is reported as 0.0945 nM. The “gMFI of bound PVR-m2aFc at 266 pM mAb” value [4] was 511, the “gMFI of bound PVR-m2aFc at 1.3 nM mAb” value [4] was 276 and the “gMFI of bound PVR-m2aFc at 6.7 nM mAb” value [4] was 215. For the same binder, the Kd [5] was 0.26 nM.

Work on B2 yielded an IC50 [6] of 0.18 nM, a Kd [7] of 0.000553 nM and a Kd [8] of 0.09 nM. The Kd [9] was 0.35 nM, the Kd [10] was 0.43 nM and the binding result [11] was “binds”. The Kd [12] was 0.000665 nM, the Kd [13] was 0.3 nM and the IC50 [14] was 0.36 nM. For the same binder, the Kd [15] was 0.11 nM, the Kd [16] was 0.663 nM and the Kd [17] was 0.0023 nM. The Kd [18] was 0.98 nM and the Kd [19] was 0.13 nM.

With B3 the binding result [20] was “binds”, the Kd [3] was 0.0213 nM and the “gMFI of bound PVR-m2aFc at 266 pM mAb” value [4] was 509. The “gMFI of bound PVR-m2aFc at 1.3 nM mAb” value [4] was 262, the “gMFI of bound PVR-m2aFc at 6.7 nM mAb” value [4] was 209 and the Kd [5] was 0.29 nM.

In the case of B4, the Kd [2] is reported as 17.2 nM, the Kd [21] is reported as 0.00155 nM and the Kd [3] is reported as 0.0231 nM. For the same binder, the Kd [5] was 10.2 nM.

Work on B5 yielded a Kd [22] of 10 nM.

In the case of B6, the Kd [23] is reported as 0.4 nM.

B7 gave a Kd [23] of 0.68 nM.
